Test results published in US20260167679A1, “FUSION PROTEIN TARGETING MITOCHONDRIA, METHOD OF MAKING AND USE THEREOF” (UNIVERSITY OF ROCHESTER, priority 2020, published 2026).

Key:
C. elegans [1] = assay: In vivo mitochondrial membrane potential (TMRE) in aged animals; parameters: species or system Caenorhabditis elegans
Protocol: FIG. 8 is a composite of drawings showing that mtON restores lost membrane potential and increases lifespan. […] One-way ANOVA with Tukey's post hoc test for multiple comparisons, *p<0.05. Data are means±standard error of the mean. Panel B) mtON activation throughout adult life extends lifespan (n=?). […] Log rank Mantel Cox test for survival comparison, p=0.018.
Panel A) Representative images of day 4 adult animals exposed to 100 nM TMRE for 24 hours. Pharynx region of interest (ROI) is outlined in dotted white lines. All animals were expressing mtON through single-copy CRISPR/Cas9 insertion to the genome. Panel B) Quantification of TMRE fluorescence in mtON-expressing day 4 adult animals exposed to 100 nM TMRE for 24 hours. Whole-body fluorescence as well as pharynx ROIs were quantified. Control represents animals exposed to light but without ATR supplementation. Statistics are student's two tailed unpaired t tests. * p<0.001.
Scale bar, 250 μm. c, Quantification of relative TMRE fluorescence. One-way analysis of variance (ANOVA) with Tukey's multiple comparisons test, day 1 versus day 4, P=0.0001, day 1 versus day 10, P=0.0002, n=44, 18 and 30. Data are median±quartiles (dotted lines). d, Pharynx TMRE fluorescence normalized to mitochondrial mass in day 4 worms. […]

[2] = system: mitochondria from HEK293T cells; assay: TMRE membrane potential of mitochondria isolated from HEK293T cells; assay type: biochemical; conditions: 540-600 nm light, absence of succinate
Source text: Stimulation of mtON with light results in polarization of the mitochondrial inner membrane. To determine whether mtON reaches the inner mitochondrial membrane in the correct orientation and to confirm the functional responsiveness of mtON, the study measured the mitochondrial membrane potential (Dym) using TMRE. The study first isolated mitochondria from HEK293T cells expressing mtON and treated them with succinate, a complex II ETC substrate, to generate a maximal mitochondrial membrane potential as a positive control (FIG. 9, panel D).
Based on this model, light stimulation of mtON results in the polarization of the mitochondrial inner membrane. To determine whether mtON reaches the inner mitochondrial membrane in the correct orientation and to confirm the functional responsiveness of mtON, the mitochondrial inner membrane potential (Δψm) was measured using tetramethylrhodamine, ethyl ester (TMRE). TMRE is a lipophilic cationic dye that accumulates in the mitochondrial matrix proportional to the mitochondrial membrane potential. First, mitochondria were isolated from HEK293T cells expressing mtON and treated them with succinate, a substrate for the ETC (complex II), to induce a maximal mitochondrial membrane potential as a positive control.

CD8+ T cells = assay: CD8+ T cell migration on ICAM-1+CXCL12; assay type: cell-based, mouse
Protocol: The velocity (A), displacement (B), track length (C), meandering index (D), and percent migrating cells (E) of Mock (or GFP) and mtOn expressing Day 4 CD8+ T cells migrating on ICAM-1+CXCL12. The percentage of migrating cells was calculated as the number of cells migrating 5-20 μm/min divided by the total number of cells in the field of view during the 20-minute movie. All movies received 500 nm illumination and were analyzed with Volocity software. All data shown as mean±SEM and analyzed by a two-tailed unpaired t-test with Welch's correction (A-D: includes four independent experiments, Mock: 271 cells, mtOn: 312 cells; E: n=4 movies on the same day). ns, not significant.
After confirming mtON is expressed correctly, there followed additional functional experiments, specifically looking at cell migration in CD8+ T cells expressing mtON (PA-OxPhos). The migration conditions were the same as in previously described experiments, except we now used the Texas Red filter (˜500 nm) on an epifluorescent microscope to activate mtON while CD8+ T cells are migrating on ICAM-1+CXCL12. CD8+ T cells were sorted based on GFP expression and the mock negative control cells were GFP negative. Both mock and mtON expressing CD8+ T cells were treated identically.

C. elegans [3] = assay: Mitochondrial mass and unfolded protein response (staining, quantitative proteomics); assay type: in vivo, Caenorhabditis elegans
Protocol: Scale bar is 10 μm. Experiment was performed 3 times with similar results. […] Scale bar is 10 μm. Experiment was performed 3 times with similar results. C) Relative pharynx TMRE fluorescence in mtON (ex. array) animals stained at day 4 of adulthood under the indicated conditions. One-way ANOVA with Tukey's test, *p=0.0001, n=33, 34, 26, 35 animals for each bar from left to right. D) Relative pharynx MitoTracker fluorescence in animals stained at day 4 of adulthood.
Genes encoding proteins are as follows. Complex I: nuo-1, nuo-5. complex II: sdha-1, mev-1, sdhb-1. Complex III: isp-1. Complex IV: cox-5a. ATP synthase: R04F11.2, atp-5. Translocase of the outer membrane (TOM70): tomm-70. VDAC: vdac-1. Uniprot C. elegans proteome database protein codes are presented above each plot. B) Proteins that mediate the mitochondrial unfolded protein response are not affected by mtON activation, two-tailed unpaired t test, −ATR n=5, +ATR n=4 biological replicates. Genes encoding proteins are hsp-6 and hsp-60.

B1: mtON: fusion of the 187 N-terminal amino acids of mouse IMMT1 to the light-activated proton pump (Mac) from Leptosphaeria maculans (protein)
chain: MLRACQLSGVTVAAQSCLCGKFVLRPLRPCRRYSTSSSSGLTAGKIAGAGLLFVGGGIGGTILYAKWDSHFRESVEKTIPYSDKLFGMVLGSAPYTVPLPKKPVQSGPLKISSVSEVMKDSKLPVAQSQKTKGDTPASAASTGAAQIISAAGDTLSVPAPAVQHEDTIKTECPNTNEGKSTSETTEEPAGLIVDQFEEVLMKTSQLFPLPTATQSAQPTHVAPVPTVLPDTPIYETVGDSGSKTLWVVFVLMLIASAAFTALSWKIPVNRRLYHVITTIITLTAALSYFAMATGHGVALNKIVIRTQHDHVPDTYETVYRQVYYARYIDWAITTPLLLLDLGLLAGMSGAHIFMAIVADLIMVLTGLFAAFGSEGTPQKWGWYTIACIAYIFVVWHLVLNGGANARVKGEKLRSFFVAIGAYTLILWTAYPIVWGLADGARKIGVDGEIIAYAVLDVLAKGVFGAWLLVTHANLRESDVELNGFWANGLNREGAIRIGEDDGAR
modifications: Synthetic Complete mtON fusion protein sequence
Question: For B1, which “whole-animal measures of PMF” value (C. elegans [1]; mtON activation for 4 days into adulthood vs age-matched controls) is on record?
Answer: significantly increased

Question: And the “age-related decline of Δψm” value (C. elegans [1]; mtON activation, two different genetic backgrounds)?
Answer: reversed that decline

Question: What about the “mitochondrial membrane potential (TMRE)” value [2] of the same molecule?
Answer: sufficient to rescue the mitochondrial membrane potential

Question: And the “overall percentage of migrating CD8+ T cells” value (CD8+ T cells; vs cells expressing GFP)?
Answer: large increase

Question: And the cell displacement (CD8+ T cells; ~500 nm illumination, vs mock)?
Answer: increase

Question: What about the cell velocity (CD8+ T cells; ~500 nm illumination, vs mock) of the same molecule?
Answer: increase

Question: What about the meandering index (CD8+ T cells; ~500 nm illumination, vs mock) of the same molecule?
Answer: increase

Question: What about the “targets of the mitochondrial unfolded protein response” value (C. elegans [3]; after mtON activation) of the same molecule?
Answer: did not change

Question: And the mitochondrial mass (C. elegans [3]; mitochondrial staining and quantitative proteomics)?
Answer: did not impact mitochondrial mass
